How the values were obtained:
[1] = target: surface of J774 A1 macrophages (BAG3 binding partner not identified) (murine); assay: flow cytometry on J774 A1 cells, 14 nM FITC-rBAG3
[2] = target: surface of J774 A1 macrophages (BAG3 binding partner not identified) (murine); assay: flow cytometry on J774 A1 cells
[3] = target: surface of J774 A1 macrophages (BAG3 binding partner not identified) (murine); assay: flow cytometry on J774 A1 cells, negative control
[4] = target: FITC-conjugated BAG3 recombinant protein (human) (UniProt O95817); assay: flow cytometry, blocking of 14 nM FITC-rBAG3 binding to J774 A1 cells by 420 nM F(ab′)2; negative control
[5] = target: surface of J774 A1 macrophages (BAG3 binding partner not identified) (murine); assay: flow cytometry competition on J774 A1 cells; 625 nM peptide, 14 nM FITC-rBAG3 as competitor

Sequence of UniProt O95817 (O95817 whole entry): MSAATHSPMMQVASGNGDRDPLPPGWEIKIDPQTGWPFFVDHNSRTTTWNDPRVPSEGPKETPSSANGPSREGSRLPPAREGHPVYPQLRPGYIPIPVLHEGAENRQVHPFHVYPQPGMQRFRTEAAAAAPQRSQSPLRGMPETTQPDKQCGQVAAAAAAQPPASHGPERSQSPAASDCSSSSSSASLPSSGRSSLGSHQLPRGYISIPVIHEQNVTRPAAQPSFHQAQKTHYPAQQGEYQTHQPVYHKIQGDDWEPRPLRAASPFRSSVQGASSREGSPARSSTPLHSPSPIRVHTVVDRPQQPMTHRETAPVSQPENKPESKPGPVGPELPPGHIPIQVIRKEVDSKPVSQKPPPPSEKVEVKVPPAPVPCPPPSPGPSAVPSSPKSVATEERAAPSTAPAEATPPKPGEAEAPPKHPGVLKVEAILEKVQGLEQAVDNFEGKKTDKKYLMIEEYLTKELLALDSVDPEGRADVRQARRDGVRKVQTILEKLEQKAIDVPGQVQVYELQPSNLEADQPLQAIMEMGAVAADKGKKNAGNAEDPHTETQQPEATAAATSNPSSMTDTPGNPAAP

% inhibition [5] [%] | % of positive cells [5] [%] | Molecule | further results
– | – | FITC-conjugated BAG3 recombinant protein (from UniProt O95817 1-575) | % of positive cells [1]: 15.7%; % of positive cells, FITC-BSA subtracted [2]: 11.1%
– | – | FITC-conjugated BSA (albumin from bovine serum) (from UniProt P02769 25-607) | % of positive cells [3]: 4.04%
– | – | F(ab′)2 fragments from rabbit IgG (antibody) | % inhibition [4]: 0%; % of positive cells [4]: 14.7%
– | – | F(ab′)2 fragments from mouse IgG (antibody) | % inhibition [4]: 0%; % of positive cells [4]: 12.3%
89.1 | 1.21 | SSPKSVATEERAAPS [BAG3 peptide 2] | –
93.8 | 0.68 | NPSSMTDTPGNPAAP [BAG3 peptide 4] | –
47.2 | 5.86 | DKGKKNAGNAEDPHT [BAG3 peptide 3] | –
98.4 | 0.18 | DRDPLPPGWEIKIDPQ [BAG3 peptide 1] | –

Reference: patent US20150147767A1
